Measured values published in US20230218519A1, “FLUID GEL COMPOSITIONS” (The University of Birmingham, priority 2020, published 2023).

Assays:
[1] = Release assay from PEG-DA fluid gel (trans-well, UV/Vis); format: physicochemical; conditions: 3% v/v PEG-DA fluid gel (Example 5.3, 500 rpm), into PBS at 37° C., 5 hrs
Protocol: • Active amounts: […] • Standard concentrations of active in PBS were prepared. • Standards were pipetted into a quartz cuvette (1 mm pathlength). • UV/Vis spectroscopy was used to measure absorbance between 200 and 700 nm wavelength. • Curves were plotted and used to determine standard curves which were used to determine concentrations. • 0.5 ml PBS was added to the well of a 24 well plate. • The PBS was incubated at 37° C. to equilibrate. • 0.1 ml of the fluid gel containing active was placed in a trans-well insert. • The trans-well insert was placed into a well containing PBS. • After a given time period the trans-well insert was removed and placed in a fresh well of PBS. • The release media was then removed and analysed using […] spectroscopy. Concentrations were derived from the standard curves and cumulative release plotted as a function of time.

fibrin gel = assay: Matrix breakdown assay (fibrin gel); format: biochemical; conditions: fibrin gel 8.5 mg/ml, 60° C., images at various timepoints
Protocol: • Add proteinase K (10 mg) to PBS to make a total volume of 1 ml. • Mix well on a vortex mixer until dissolved.
• Add 0.9 ml of 3% v/v PEG-DA fluid gel prepared according to Example 5.3 to an Eppendorf. • To each gel add 0.1 ml of active in PBS. • Mix well using a vortex mixer. • Refrigerate for 24 hours before testing.
• 0.5 ml of fibrin gel (8.5 mg/ml) was formed in the wells of a 24 well plate. • 0.5 ml of PBS was added to each well. • 0.1 ml of fluid gel containing active was added to a trans-well insert and placed above the fibrin gel. • Samples were incubated at 60° C. to activate the proteinase K. • Images were taken at various timepoints and compared to (a) the control wells containing only fibrin gel+PBS; and (b) wells containing fibrin gel+proteinase k (no fluid gel carrier).

B1: proteinase K only: extracellular matrix remodelling agent, a proteinase (protein, UniProt P06873 106-384, looked up)
Proteinase K: AAQTNAPWGLARISSTSPGTSTYYYDESAGQGSCVYVIDTGIEASHPEFEGRAQMVKTYYYSSRDGNGHGTHCAGTVGSRTYGVAKKTQLFGVKVLDDNGSGQYSTIIAGMDFVASDKNNRNCPKGVVASLSLGGGYSSSVNSAAARLQSSGVMVAVAAGNNNADARNYSPASEPSVCTVGASDRYDRRSSFSNYGSVLDIFGPGTSILSTWIGGSTRSISGTSMATPHVAGLAAYLMTLGKTTAASACRYIADTANKGDLSNIPFGTVNLLAYNNYQA
release of active agent from fluid gel [1]: able to release | fibrin gel break down (fibrin gel): faster
